Data as given in patent US20200317768A1 (published 2020).

Columns and labels:
[1] = target: T1, cynomolgus monkey FcγRIIa1 extracellular domain, C-terminal His-tag (cynomolgus monkey); experiment: SPR (BIACORE), antibody captured, FcγR analyte
T1 construct: also called cyno FcγRIIa1; cynoFcgRIIa1; not shown: His-tag added to C-terminus
T1 chain: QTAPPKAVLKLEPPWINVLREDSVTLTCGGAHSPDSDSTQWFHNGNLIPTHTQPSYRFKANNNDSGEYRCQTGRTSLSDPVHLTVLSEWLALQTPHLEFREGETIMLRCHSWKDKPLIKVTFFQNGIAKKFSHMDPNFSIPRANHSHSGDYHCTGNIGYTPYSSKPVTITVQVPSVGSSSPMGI

[2] = target: T2, cynomolgus monkey FcγRIIa2 extracellular domain, C-terminal His-tag (cynomolgus monkey); experiment: SPR (BIACORE), antibody captured, FcγR analyte
T2 construct: also called cyno FcγRIIa2; cynoFcgRIIa2; not shown: His-tag added to C-terminus
T2 chain: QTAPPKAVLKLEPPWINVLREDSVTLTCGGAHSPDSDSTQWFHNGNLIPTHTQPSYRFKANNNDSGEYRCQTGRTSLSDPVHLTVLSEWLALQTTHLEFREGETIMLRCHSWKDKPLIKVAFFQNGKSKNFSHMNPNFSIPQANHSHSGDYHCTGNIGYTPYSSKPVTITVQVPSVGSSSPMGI

[3] = target: T3, cynomolgus monkey FcγRIIa3 extracellular domain, C-terminal His-tag (cynomolgus monkey); experiment: SPR (BIACORE), antibody captured, FcγR analyte
T3 construct: also called cyno FcγRIIa3; cynoFcgRIIa3; not shown: His-tag added to C-terminus
T3 chain: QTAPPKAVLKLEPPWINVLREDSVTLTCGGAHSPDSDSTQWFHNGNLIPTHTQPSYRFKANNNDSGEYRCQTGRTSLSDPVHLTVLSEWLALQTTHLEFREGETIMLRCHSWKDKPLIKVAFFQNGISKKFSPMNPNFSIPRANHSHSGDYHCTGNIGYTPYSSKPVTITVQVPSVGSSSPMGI

[4] = target: T4, cynomolgus monkey FcγRIIb extracellular domain, C-terminal His-tag (cynomolgus monkey); experiment: SPR (BIACORE), antibody captured, FcγR analyte
T4 construct: also called cyno FcγRIIb; cynoFcγRIIb; not shown: His-tag added to C-terminus
T4 chain: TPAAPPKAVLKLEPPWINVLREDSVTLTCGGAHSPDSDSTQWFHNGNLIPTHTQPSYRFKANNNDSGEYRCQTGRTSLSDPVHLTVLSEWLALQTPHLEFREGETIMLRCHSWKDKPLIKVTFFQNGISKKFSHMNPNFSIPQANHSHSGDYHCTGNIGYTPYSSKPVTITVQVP

[5] = target: T5, cynomolgus monkey FcγRIIIaS extracellular domain, C-terminal His-tag (cynomolgus monkey, UniProt A3RFZ7 21-206 (rhesus entry)); experiment: SPR (BIACORE), antibody captured, FcγR analyte
T5 construct: also called cyno FcγRIIIaS; cynoFcγRIIIaS; not shown: His-tag added to C-terminus
T5 sequence (A3RFZ7 21-206): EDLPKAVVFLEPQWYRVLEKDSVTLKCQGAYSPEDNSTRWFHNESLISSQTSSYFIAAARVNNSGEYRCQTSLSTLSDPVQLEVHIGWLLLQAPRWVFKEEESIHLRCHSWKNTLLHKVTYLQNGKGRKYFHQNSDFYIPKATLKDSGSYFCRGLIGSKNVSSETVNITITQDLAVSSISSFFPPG

[6] = target: T6, human FcγRIIaH extracellular domain, C-terminal His-tag (human, UniProt P12318 34-217); experiment: SPR (BIACORE), antibody captured, FcγR analyte
T6 construct: also called human FcγRIIa (type H); FcgRIIaH; not shown: His-tag added to C-terminus
T6 sequence: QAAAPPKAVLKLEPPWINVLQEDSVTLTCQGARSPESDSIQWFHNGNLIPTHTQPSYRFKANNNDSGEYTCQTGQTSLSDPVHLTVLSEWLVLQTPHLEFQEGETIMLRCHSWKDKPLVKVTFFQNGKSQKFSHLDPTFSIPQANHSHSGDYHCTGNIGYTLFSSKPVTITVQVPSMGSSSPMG

[7] = target: T7, human FcγRIIaR extracellular domain, C-terminal His-tag (human, UniProt P12318 34-217); experiment: SPR (BIACORE), antibody captured, FcγR analyte
T7 construct: also called human FcγRIIa (type R); FcgRIIaR; not shown: His-tag added to C-terminus
T7 chain: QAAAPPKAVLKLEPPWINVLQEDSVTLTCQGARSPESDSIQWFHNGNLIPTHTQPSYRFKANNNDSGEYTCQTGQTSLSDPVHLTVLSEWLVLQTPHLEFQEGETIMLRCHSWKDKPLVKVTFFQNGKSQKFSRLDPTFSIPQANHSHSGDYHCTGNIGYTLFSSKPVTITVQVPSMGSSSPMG

[8] = target: T8, human FcγRIIb extracellular domain, C-terminal His-tag (human, UniProt P31994 43-217); experiment: SPR (BIACORE), antibody captured, FcγR analyte
T8 construct: also called humanFcgRIIb; not shown: His-tag added to C-terminus
T8 sequence: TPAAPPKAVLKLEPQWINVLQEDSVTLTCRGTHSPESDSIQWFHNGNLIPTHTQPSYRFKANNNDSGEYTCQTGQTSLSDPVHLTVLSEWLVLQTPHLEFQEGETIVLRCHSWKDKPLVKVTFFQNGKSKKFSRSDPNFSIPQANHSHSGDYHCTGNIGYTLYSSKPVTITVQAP

[9] = target: T9, human FcγRIIIaV extracellular domain, C-terminal His-tag (human, UniProt P08637 17-208); experiment: SPR (BIACORE), antibody captured, FcγR analyte
T9 construct: also called FcgRIIIaV; not shown: His-tag added to C-terminus
T9 sequence (P08637 17-208 F176V): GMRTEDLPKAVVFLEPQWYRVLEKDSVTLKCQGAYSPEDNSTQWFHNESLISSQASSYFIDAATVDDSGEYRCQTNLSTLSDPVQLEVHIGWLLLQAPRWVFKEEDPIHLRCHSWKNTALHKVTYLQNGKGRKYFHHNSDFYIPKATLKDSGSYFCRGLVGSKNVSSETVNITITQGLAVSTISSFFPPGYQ

[10] = target: T1, cynomolgus monkey FcγRIIa1 …; experiment: SPR (BIACORE); KD of parent SG1 / KD of variant;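 note: relative to parent M103205H795-SG1 carrying the SG1 human heavy chain constant region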
[11] = target: T2, cynomolgus monkey FcγRIIa2 …; experiment: SPR (BIACORE); KD of parent SG1 / KD of variant;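 note: relative to parent M103205H795-SG1 carrying the SG1 human heavy chain constant region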
[12] = target: T3, cynomolgus monkey FcγRIIa3 …; experiment: SPR (BIACORE); KD of parent SG1 / KD of variant;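 note: relative to parent M103205H795-SG1 carrying the SG1 human heavy chain constant region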
[13] = target: T4, cynomolgus monkey FcγRIIb extracellular …; experiment: SPR (BIACORE); KD of parent SG1 / KD of variant;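 note: relative to parent M103205H795-SG1 carrying the SG1 human heavy chain constant region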
[14] = target: T5, cynomolgus monkey FcγRIIIaS …; experiment: SPR (BIACORE); KD of parent SG1 / KD of variant
[15] = target: T6, human FcγRIIaH extracellular domain, …; experiment: SPR (BIACORE); KD of parent SG1 / KD of variant
[16] = target: T7, human FcγRIIaR extracellular domain, …; experiment: SPR (BIACORE); KD of parent SG1 / KD of variant
[17] = target: T8, human FcγRIIb extracellular domain, …; experiment: SPR (BIACORE); KD of parent SG1 / KD of variant
[18] = target: T9, human FcγRIIIaV extracellular domain, …; experiment: SPR (BIACORE); KD of parent SG1 / KD of variant
[19] = target: T10, human FcγRIIaH extracellular domain, C-terminal His-tag (human, UniProt P12318 34-217); experiment: SPR (BIACORE); KD of SG1 divided by KD of the variant
T10 construct: Soluble extracellular domain expressed in FreeStyle 293 cells; also called FcgRIIaH; human FcγRIIa (type H); not shown: His-tag added to the C-terminus
T10 sequence: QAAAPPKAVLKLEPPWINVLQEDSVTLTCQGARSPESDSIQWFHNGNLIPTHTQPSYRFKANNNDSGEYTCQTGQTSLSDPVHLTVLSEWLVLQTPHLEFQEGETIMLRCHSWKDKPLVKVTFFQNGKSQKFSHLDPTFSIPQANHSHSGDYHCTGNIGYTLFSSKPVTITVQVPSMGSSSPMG
Description: (§1) The kinetic analysis of interactions between these antibodies and FcγR was carried out using BIACORE® T200 or BIACORE® 4000 (GE Healthcare). HBS-EP+ (GE Healthcare) was used as the running buffer, and the measurement temperature was set to 25° C. A chip produced by immobilizing Protein A. Protein A/G or mouse anti-human IgG kappa light chain (BD Biosciences) onto a Series S Sensor Chip CM4 or CM5 (GE Healthcare) by the amine-coupling method was used. […] After the measurement, the antibody captured on the chip was washed off by allowing reaction with 10 mM glycine-HCl, pH1.5 and 25 mM NaOH so that the chip was regenerated and used repeatedly. The sensorgrams obtained as measurement results were analyzed by the 1:1 Langmuir binding model using the BIACORE® Evaluation Software to calculate the binding rate constant ka (L/mol/s) and dissociation rate constant kd (l/s), and the dissociation constant KD (mol/L) was calculated from these values. […] Regarding such interactions, KD values were calculated using the following 1:1 binding model described in BIACORE® T100 Software Handbook BR1006-48 Edition AE.
(§2) Furthermore, the substitutions used in Example 29 for improving antibody half-life and reducing binding to rheumatoid factor were introduced into human FcγRIIb-enhanced Fc variants and their affinity against human FcγRs were analyzed (Table 29). In this SPR analysis, all the data were obtained using mouse anti-human IgG kappa light chain for capturing the antibodies of interest.

[20] = target: T11, human FcγRIIaR extracellular domain, C-terminal His-tag (human, UniProt P12318 34-217); experiment: as above
T11 construct: Soluble extracellular domain expressed in FreeStyle 293 cells; also called FcgRIIaR; human FcγRIIa (type R); not shown: His-tag added to the C-terminus
T11 chain: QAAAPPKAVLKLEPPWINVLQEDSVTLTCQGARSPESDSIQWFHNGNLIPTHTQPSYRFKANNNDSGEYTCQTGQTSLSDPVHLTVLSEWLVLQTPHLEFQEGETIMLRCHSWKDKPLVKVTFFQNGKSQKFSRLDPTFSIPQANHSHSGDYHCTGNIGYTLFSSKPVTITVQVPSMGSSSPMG
Description: as §1, §2

[21] = target: T12, human FcγRIIb extracellular domain, C-terminal His-tag (human, UniProt P31994 43-217); experiment: as above
T12 construct: Soluble extracellular domain expressed in FreeStyle 293 cells; also called FcgRIIb; not shown: His-tag added to the C-terminus
T12 sequence: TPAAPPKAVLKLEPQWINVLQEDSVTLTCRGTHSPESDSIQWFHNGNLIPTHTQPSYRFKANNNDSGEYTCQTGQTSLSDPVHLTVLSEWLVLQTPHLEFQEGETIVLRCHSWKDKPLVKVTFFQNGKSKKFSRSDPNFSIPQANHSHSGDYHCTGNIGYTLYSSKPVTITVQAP
Description: as §1, §2

[22] = target: T13, human FcγRIIIaV extracellular domain, C-terminal His-tag (human, UniProt P08637 17-208); experiment: as above
T13 construct: Soluble extracellular domain expressed in FreeStyle 293 cells; also called FcgRIIIaV; not shown: His-tag added to the C-terminus
Description: as §1, §2
T13 sequence (P08637 17-208 F176V): as the sequence (P08637 17-208 F176V) above

[23] = target: T10, human FcγRIIaH extracellular domain, …; experiment: SPR (BIACORE), antibody captured by mouse anti-human IgG kappa light chain, FcgR extracellular domain as analyte, 25 C
Description: as §1, §2

[24] = target: T11, human FcγRIIaR extracellular domain, …; experiment: as above
Description: as §1, §2

[25] = target: T12, human FcγRIIb extracellular domain, …; experiment: as above
Description: as §1, §2

[26] = target: T13, human FcγRIIIaV extracellular domain, …; experiment: as above
Description: as §1, §2

B1: M103240H795-SG1077 / M103202L1045-SK1 (antibody)
heavy: QVQLVESGGGLVQPGGSLRLSCAVSGIDLSHDDISWVRQAPGKGLEWVSIISYAGSTYYASWAKGRLTISKDTSKNQVVLTMTNMDPVDTATYYCARGVPAYSHGGDLWGQGTLVTVSSASTKGPSVFPLAPSSKSTSGGTAALGCLVKDYFPEPVTVSWNSGALTSGVHTFPAVLQSSGLYSLSSVVTVPSSSLGTQTYICNVNHKPSNTKVDKKVEPKSCDKTHTCPPCPAPELWNGPSVFLFPPKPKDTLMISRTPEVTCVVVDVSDEDPEVKFNWYVDGVEVHNAKTKPREELYNSTYRVVSVLTVLHRDWLNGKEYKCKVSNTALPKPIEKTISKAKGQRREPQVYTLPPSREEMTKNQVSLTCLVKGFYPSDIAVEWESNGQPENNYKTTPPVLDSDGSFFLYSKLTVDKSRWQQGNVFSCSVLHEALHAHTTRKELSLSP
light: DIVMTQSPATLSLSPGERATLSCTTSQSVYHENWLSWFQQKPGQPPKLLIYWASTLAYGVPSRFSGSGSGTDFTLTISSLQPEDAATYYCAGGYGGGRYAFGQGTKVEIKRTVAAPSVFIFPPSDEQLKSGTASVVCLLNNFYPREAKVQWKVDNALQSGNSQESVTEQDSKDSTYSLSSTLTLSKADYEKHKVYACEVTHQGLSSPVTKSFNRGEC
notes: CH with L235W/G236N/H268D/Q295L/Q311R/K326T/A330K/P343R/M428L/N434A/Y436T/Q438R/S440E against SG1 (EU numbering); also called MS1032LO19-SG1077
B1 gave a Kd [1] of 1400 nM, a Kd [2] of 1300 nM and a Kd [3] of 2000 nM. The Kd [4] was 320 nM, the Kd [5] was 2900 nM and the Kd [6] was 930 nM. For the same binder, the Kd [7] was 690 nM, the Kd [8] was 510 nM and the Kd [9] was 3400 nM. For the same binder, the “KD fold (SG1 = 1)” value [10] was 2.7 fold, the “KD fold (SG1 = 1)” value [11] was 3.1 fold and the “KD fold (SG1 = 1)” value [12] was 3.3 fold. The “KD fold (SG1 = 1)” value [13] was 5.4 fold, the “KD fold (SG1 = 1)” value [14] was 0.09 fold and the “KD fold (SG1 = 1)” value [15] was 1 fold. For the same binder, the “KD fold (SG1 = 1)” value [16] was 1.4 fold, the “KD fold (SG1 = 1)” value [17] was 7.5 fold and the “KD fold (SG1 = 1)” value [18] was 0.17 fold.

B2: MS103240H795-SG1/M103202L1045-SK1 (antibody, human IgG1, kappa)
heavy: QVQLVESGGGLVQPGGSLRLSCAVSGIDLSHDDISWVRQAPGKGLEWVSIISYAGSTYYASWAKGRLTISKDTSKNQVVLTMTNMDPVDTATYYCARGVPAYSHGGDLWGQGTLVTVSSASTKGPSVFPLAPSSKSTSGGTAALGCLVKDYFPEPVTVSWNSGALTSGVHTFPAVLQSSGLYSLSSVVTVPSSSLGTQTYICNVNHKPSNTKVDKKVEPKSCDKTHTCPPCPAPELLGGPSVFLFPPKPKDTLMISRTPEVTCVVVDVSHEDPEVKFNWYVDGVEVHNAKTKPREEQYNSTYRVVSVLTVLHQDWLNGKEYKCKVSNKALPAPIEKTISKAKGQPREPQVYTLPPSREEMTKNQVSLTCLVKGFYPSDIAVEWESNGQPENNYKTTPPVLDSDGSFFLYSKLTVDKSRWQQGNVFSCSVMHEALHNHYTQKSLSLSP
light: DIVMTQSPATLSLSPGERATLSCTTSQSVYHENWLSWFQQKPGQPPKLLIYWASTLAYGVPSRFSGSGSGTDFTLTISSLQPEDAATYYCAGGYGGGRYAFGQGTKVEIKRTVAAPSVFIFPPSDEQLKSGTASVVCLLNNFYPREAKVQWKVDNALQSGNSQESVTEQDSKDSTYSLSSTLTLSKADYEKHKVYACEVTHQGLSSPVTKSFNRGEC
notes: Parent constant region SG1 (human IgG1-like); also called MS1032LO19-SG1; copies: 2 + 2
B2 was tested, and the “KD fold for humanFcgRs (SG1 = 1)” value [19] was 1 fold, the “KD fold for humanFcgRs (SG1 = 1)” value [20] was 1 fold and the “KD fold for humanFcgRs (SG1 = 1)” value [21] was 1 fold. For the same binder, the “KD fold for humanFcgRs (SG1 = 1)” value [22] was 1 fold, the Kd [23] was 970 nM and the Kd [24] was 1200 nM. For the same binder, the Kd [25] was 4700 nM and the Kd [26] was 720 nM.
